Measurements published in the Immune Epitope Database (IEDB).

Experiments:
Assay in all cases: IEDB peptide-MHC binding, purified MHC/competitive/radioactivity; filed as Kd, often an IC50 or EC50 that approximates it; ≥ and ≤ were set here for values at or beyond the usual limits of such assays
Conditions in all cases: source organism: Toxoplasma gondii
HLA-A*30:01 = target: HLA-A*30:01
HLA-A*68:01 = target: HLA-A*68:01
HLA-A*33:01 = target: HLA-A*33:01
HLA-A*31:01 = target: HLA-A*31:01
HLA-A*03:01 = target: HLA-A*03:01

| Sequence | Kd (HLA-A*30:01) [nM] | Kd (HLA-A*68:01) [nM] | Kd (HLA-A*33:01) [nM] | Kd (HLA-A*31:01) [nM] | Kd (HLA-A*03:01) [nM] |
| --- | --- | --- | --- | --- | --- |
| AVVSLLRLLK | 8.1 | 94 | 1100 | 1300 | 17 |
| STFWPCLLR | 1270 | 0.97 | 3.4 | 1.2 | 22 |
